Measured values taken from publication PMC7430652.

Molecular target: 39S large mitoribosome subunit (mtLSU) (human (endogenous in HEK293T and 143B))
Test: co-sedimentation

percent of total GTPBP5 co-sedimenting: 60%
B1: GTPBP5 (natural protein)
chain: MAPARCFSARLRTVFQGVGHWALSTWAGLKPSRLLPQRASPRLLSVGRADLAKHQELPGKKLLSEKKLKRYFVDYRRVLVCGGNGGAGASCFHSEPRKEFGGPDGGDGGNGGHVILRVDQQVKSLSSVLSRYQGFSGEDGGSKNCFGRSGAVLYIRVPVGTLVKEGGRVVADLSCVGDEYIAALGGAGGKGNRFFLANNNRAPVTCTPGQPGQQRVLHLELKTVAHAGMVGFPNAGKSSLLRAISNARPAVASYPFTTLKPHVGIVHYEGHLQIAVADIPGIIRGAHQNRGLGSAFLRHIERCRFLLFVVDLSQPEPWTQVDDLKYELEMYEKGLSARPHAIVANKIDLPEAQANLSQLRDHLGQEVIVLSALTGENLEQLLLHLKVLYDAYAEAELGQGRQPLRW
